The results in this text go back to patent publication US20100280227A1 (Genentech, published 2010).

Like-named read-outs stand apart in the source and are kept apart here.

The target in assay [1] is T1, human BR3 extracellular domain (human, UniProt Q96RJ3 1-61).
T1 construct: biotinylated where used as tracer; also called hBR3-ECD; BR3-ECD
Description: SPR, BR3 ECD on chip.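 Further: Anti-BR3 antibodies passed over the chip at high flow in PBS with 0.05% polysorbate 20, on and off rates fitted together globally to a 1:1 binding model.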 On the technique in general: Surface plasmon resonance follows binding to a sensor surface in real time, without labels.

Assay [2] deals with T2, variant human BR3-Fc fusion.
T2 construct: produced in CHO cells; also called vBR3-Fc; vhBR3-Fc
Description: SPR, vBR3-Fc on chip.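 Further: Anti-BR3 antibodies passed over chip-bound BR3-Fc in PBS with 0.05% polysorbate 20, on and off rates fitted together globally to a 1:1 binding model.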
Description: After coupling, unoccupied sites on the chip were blocked by injecting 20 μl of 1M ethanolamine, pH 8.5. The running buffer was PBS containing 0.05% polysorbate 20. […] The binding surface was regenerated by injecting 20-30 μl of 10 mM glycine.HCl (pH 1.5). […] Data were analyzed using a 1:1 binding model using global fitting. The association and dissociation rate constants were fitted simultaneously (BIAevaluation software).
A high flow rate was used in order to minimize mass transport effects.

Assay [3] addresses T3, human BR3 expressed on cells (human, UniProt Q96RJ3 1-184).
T3 construct: whole, on cells; also called BR3 on BJAB cells; cell surface BR3
The experiment in a line: BJAB cells, direct binding.
Description: Direct and competitive binding assays were performed as follows. For the direct binding assay, IgG antibody samples were serially diluted in cold assay buffer to concentrations ranging between 300-0.02 nM. Samples (100 μl) were added to the pelleted cells, and the plates were incubated for 45 min on ice. An additional 100 μl assay buffer was then added to each well, and the plates were centrifuged at 1200 rpm for 5 min at 4° C. After carefully aspirating the supernatant, the cells were washed two additional times with 200 μl assay buffer. An anti-mouse IgG Fc-HRP or goat anti-human IgG Fc-HRP, as appropriate, was diluted 1/10,000 in cold assay buffer was added (100 μl/well, Jackson ImmunoResearch, West Grove, Pa.), and the plates were incubated on ice for 45 min. Following two washes with 200 μl cold assay buffer, tetramethyl benzidine (TMB, Kirkegaard & Perry Laboratories, Gaithersburg, Md.) was added, and color was allowed to develop for 10 min. One hundred microliters 1 M H₃PO₄ was added to stop the reaction. The plates were then read on a microplate reader at 450 nm with a 620 nm reference. In the direct binding assay, the indicated concentrations of mAbs were added to BJAB cells and bound mAb was detected.

Assay [4] has as its target T3, human BR3 expressed on cells. Description: BJAB cells, competition with biotin-BAFF.
Description: The diluted samples were added to the pelleted BJAB cells in 96 well plates as described above. After 45 min incubation on ice, the cells were washed twice with 200 μl cold assay buffer, and streptavidin-HRP (AMDEX, Amersham Biosciences, Piscataway, N.J.) diluted 1/5,000 in assay buffer was added (100 μl/well). The plates were incubated for a final 45 min on ice. After washing twice with cold assay buffer, color was developed using TMB, the reaction was stopped with H₃PO₄, and the plates were read as described above.
The target is the same in assay [5]. Description: BJAB cells, competition with biotin-BAFF. The source holds these as a separate data set.
Assay [6] deals with T1, human BR3 extracellular domain. The experiment in a line: SPR, IgG on chip, BR3 ECD in solution.
Assay [7] addresses T4, mouse BR3 extracellular domain (mouse, UniProt Q9D8D0 1-64).
T4 construct: also called mBR3-ECD; mBR-ECD
T4 sequence: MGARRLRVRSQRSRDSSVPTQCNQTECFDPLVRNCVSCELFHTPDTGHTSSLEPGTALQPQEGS
Description: SPR, IgG on chip, BR3 ECD in solution.

Assay [8] concerns the target T1, human BR3 extracellular domain. Description: F(ab)'2 phage solution binding competition ELISA. A general note: ELISA stands for enzyme-linked immunosorbent assay.
Description: (§1) Third, a competition ELISA was performed. […] The wells were blocked by adding 65 ul 1% BSA for 30 minutes followed by 40 ul 1% Tween20 for another 30 minutes. The wells were washed with PBS—0.05% Tween20 5 times. […] The wells of the second plate were washed with PBS—0.5% Tween20 at least three times. 75 ul of HRP-conjugated anti-M13 antibody (1/5000 dilution with ELISA buffer) per well was added and incubated at room temperature for 30 minutes. The wells were washed again with PBS—0.05% Tween20 at least five times.
Assay [9] has as its target T4, mouse BR3 extracellular domain. Description: F(ab)'2 phage solution binding competition ELISA.
Description: as §1
The target in assay [10] is T1, human BR3 extracellular domain. Description: SPR BIAcore-3000, Fab.
Description: (§2) Surface plasmon resonance assays on a BIAcore™-3000 were used to determine the affinity of the Fabs.
Assay [11] deals with T4, mouse BR3 extracellular domain. Description: SPR BIAcore-3000, Fab.
Description: as §2
Assay [12] addresses T1, human BR3 extracellular domain. Description: phage competition ELISA.
In assay [13] the target is T4, mouse BR3 extracellular domain. Description: phage competition ELISA.
Assay [14] has the same target. The experiment in a line: SPR BIAcore-2000, mBR3-ECD on chip, Fab injected.
Description: (§3) Biacore measurement Surface plasmon resonance assays on a BIAcore™-2000 were used to determine the affinity of anti-BR3 Fabs. […] For kinetics analysis, 1:1 Languir model of simultaneous fitting of kₒₙ and koff was used.
The target of assay [15] is T1, human BR3 extracellular domain. The experiment in a line: SPR BIAcore-2000, hBR3-ECD on chip, Fab injected.
Description: as §3

B1: chimeric 2.1 IgG (antibody, V domains shown)
VH: EVQLQESGPSLVKPSQTLSLTCSVTGDSITRGYWNWIRKFPGNKLEFMGYINYSGTTYYNPSLKSRISITRDTSKNQYYLQLNSVTTEDTATYYCATPHTYGAMDYWGQGTTLTVSA
VL: DIVLTQSPVSLAVSLGQRATISCRASESVDDYGISFMHWYQQKPGQPPKLLIYRASDLESGIPARFSGSGSGTDFTLTINPVETDDVAIYYCQQTSKDPWTFGGGT
notes: also called Ch 2.1 IgG; ch 2.1
Turning to B1, the Kd in assay [1] and in assay [2] was 0.04 nM throughout. In addition, the koff is 6.8e-05 s⁻¹ in [1] and 3.8e-05 s⁻¹ in [2]. Also, the kon in assay [1] was determined as 1.68e+06 M⁻¹ s⁻¹; in [2] it was 980000 M⁻¹ s⁻¹. This molecule also registered an EC50 in assay [3] of 0.14 nM. Also, the IC50 in assay [4] is 0.23 nM; in assay [5] it was 0.2 nM.

B2: chimeric 11G9 IgG (antibody, V domains shown)
VH: DVQLQESGPSLVKPSQTLSLTCSVTGDSITSGYWNWIRKFPGNKLEYMGYISYSGSTYYNPSLKSRISITRDTSKNQFYLQLLSVTTEDTATYYCAGLDGLYWYFDVWGAGTLVTVSS
VL: DIVMTQTPLSLPVSLGDQASISCRSSQSLVHSNGNTYLHWYLQKPGQSPKLLIYKVSNRFSGVPDRFSGSGSGTDFTLKISRVEAEDLGVYFCSQSTHVPPFTFGSGT
notes: also called Ch 11G9 IgG
In assay [1], B2 gave a Kd of 0.34 nM, an off-rate constant (koff) of 0.000549 s⁻¹ and a kon of 1.64e+06 M⁻¹ s⁻¹. In assay [2], this molecule returned a Kd of 2.78 nM, a koff of 0.00218 s⁻¹ and an association rate constant (kon) of 780000 M⁻¹ s⁻¹. In addition, the IC50 in assay [4] came out at 0.45 nM.

B3: mV3-46 IgG (antibody, V domains shown)
VH: EVQLVESGGGLVQPGGSLRLSCAASGFTISNSSIHWVRQAPGKGLEWVAWVLPSVGFTDYADSVKGRFTISADTSKNTAYLQMNSLRAEDTAVYYCARRVCYNRLGVCAGGMDYWGQGTLVTVSS
VL: DIQMTQSPSSLSASVGDRVTITCRASQDVSTAVAWYQQKPGKAPKLLIYSASFLYSGVPSRFSGSGSGTDFTLTISSLQPEDFATYYCQQSQISPPTFGQGTKVEIKR
notes: IgG on chip
B3: in [6], binding was put at a Kd of 0.24 nM, the off-rate (koff) worked out at 7.31e-05 s⁻¹ and the kon was found to be 300000 M⁻¹ s⁻¹. Further, in assay [7], the dissociation constant (Kd) is 1.17 nM, the dissociation rate constant (koff) stood at 0.00014 s⁻¹ and the kon was 119000 M⁻¹ s⁻¹.

B4: V3-1h (antibody, human IgG1, V domains shown)
VH: EVQLVESGGGLVQPGGSLRLSCAASGFTISSNSIHWVRQAPGKGLEWVAWITPSDGNTDYADSVKGRFTISADTSKNTAYLQMNSLRAEDTAVYYCARRVCYNRLGVCAGGMDYWGQGTLVTVSS
VL: DIQMTQSPSSLSASVGDRVTITCRASQDVSTAVAWYQQKPGKAPKLLIYSASFLYSGVPSRFSGSGSGTDFTLTISSLQPEDFATYYCQQSRITPPTFGQGTKVEIKR
In [4], B4 registered an IC50 of 5.97 nM.

B5: 51 (Fab, V domains shown)
VH: EVQLVESGGGLVQPGGSLRLSCAASGFTISSTGIHWVRQAPGKGLEWVGGISPSSGSTNYADSVKGRFTISADTSKNTAYLQMNSLRAEDTAVYYCARRKVVSSHVTNKYVMDYWGQGTLVTVSS
VL: DIQMTQSPSSLSASVGDRVTITCRASQDVSTAVAWYQQKPGKAPKLLIYSASFLYSGVPSRFSGSGSGTDFTLTISSLQPEDFATYYCQQSYTTPPTFGQGTKVEIKR
notes: also called V51; clone 51
Regarding B5, the values for the binding result in [8] and in assay [9] were “binds” and “no binding”, respectively.

B6: V3-46s-9 Fab (Fab, V domains shown)
VH: EVQLVESGGGLVQPGGSLRLSCAASGFTISSSSIHWVRQAPGKGLEWVAWVLPSVGFTDYADSVKGRFTISADTSKNTAYLQMNSLRAEDTAVYYCARRVCYNRLGVCAGGMDYWGQGTLVTVSS
VL: DIQMTQSPSSLSASVGDRVTITCRASEDISTAVAWYQQKPGKAPKLLIFAASYLYSGVPSRFSGSGSGTDFTLTISSLQPEDFATYYCQQSQISPPTFGQGTKVEIK
notes: soluble Fab in SPR; also called V46s-9
For B6, in assay [10], binding was put at a Kd of 0.09 nM, the koff worked out at 1.6e-05 s⁻¹ and the kon turned out to be 160000 M⁻¹ s⁻¹. Also, in assay [11], the affinity, expressed as Kd, was 0.32 nM; the koff stood at 0.00015 s⁻¹; the kon was 470000 M⁻¹ s⁻¹. Besides, the IC50 in assay [12] turned out to be 0.053 nM. This molecule displayed an IC50 in assay [13] of 0.182 nM.

B7: 44 (Fab, V domains shown)
VH: EVQLVESGGGLVQPGGSLRLSCAASGFTITGSYIHWVRQAPGKGLEWVAWIYPDGGYTDYADSVKGRFTISADTSKNTAYLQMNSLRAEDTAVYYCASKPAGPFGYWGQGTLVTVSS
VL: DIQMTQSPSSLSASVGDRVTITCRASQDVSTAVAWYQQKPGKAPKLLIYSASFLYSGVPSRFSGSGSGTDFTLTISSLQPEDFATYYCQQSYTTPPTFGQGTKVEIKR
notes: also called V44; clone 44
B7: in assay [8], the binding result is listed as “no binding”. In [9], this molecule gave an IC50 of 1500 nM.

B8: V3-46s Fab (Fab, V domains shown)
VH: EVQLVESGGGLVQPGGSLRLSCAASGFTISSSSIHWVRQAPGKGLEWVAWVLPSVGFTDYADSVKGRFTISADTSKNTAYLQMNSLRAEDTAVYYCARRVCYNRLGVCAGGMDYWGQGTLVTVSS
VL: DIQMTQSPSSLSASVGDRVTITCRASQDVSTAVAWYQQKPGKAPKLLIYSASFLYSGVPSRFSGSGSGTDFTLTISSLQPEDFATYYCQQSQISPPTFGQGTKVEIKR
notes: N31S mutant of V3-46; also called V46s; N31S
On to B8, for which the Kd stood at 0.6 nM in assay [10], 1 nM in assay [11], 1 nM in [14] and 0.6 nM in [15]. Moreover, the koff in [10] was determined as 8.6e-05 s⁻¹; in [11], 0.00027 s⁻¹; in [14], 0.00027 s⁻¹; in [15], 8.6e-05 s⁻¹. The kon in assay [10] stood at 140000 M⁻¹ s⁻¹; in assay [11], 270000 M⁻¹ s⁻¹; in [14], 270000 M⁻¹ s⁻¹; in assay [15] it was 140000 M⁻¹ s⁻¹.

B9: V3-46s-42 Fab (Fab, V domains shown)
VH: EVQLVESGGGLVQPGGSLRLSCAASGFTISSSSIHWVRQAPGKGLEWVAWVLPSVGFTDYADSVKGRFTISADTSKNTAYLQMNSLRAEDTAVYYCARRVCYNRLGVCAGGMDYWGQGTLVTVSS
VL: DIQMTQSPSSLSASVGDRVTITCRASEDISTAVAWYQQKPGKAPKLLIYAASFLYSGVPSRFSGSGSGTDFTLTISSLQPEDFATYYCQQSQISPPTFGQGTKVEIK
notes: soluble Fab in SPR; also called V46s-42
For B9, in assay [10], the Kd was determined as 0.026 nM, the koff was determined as 1.4e-05 s⁻¹ and the kon worked out at 617000 M⁻¹ s⁻¹. Further, in assay [11], the Kd came out at 0.39 nM, the koff is 0.00029 s⁻¹ and the kon was 740000 M⁻¹ s⁻¹.

B10: mV3-46s IgG (antibody, V domains shown)
VH: EVQLVESGGGLVQPGGSLRLSCAASGFTISSSSIHWVRQAPGKGLEWVAWVLPSVGFTDYADSVKGRFTISADTSKNTAYLQMNSLRAEDTAVYYCARRVCYNRLGVCAGGMDYWGQGTLVTVSS
VL: DIQMTQSPSSLSASVGDRVTITCRASQDVSTAVAWYQQKPGKAPKLLIYSASFLYSGVPSRFSGSGSGTDFTLTISSLQPEDFATYYCQQSQISPPTFGQGTKVEIKR
notes: IgG on chip
In assay [6], B10 displayed a Kd of 0.02 nM, a koff of 3.18e-05 s⁻¹ and a kon of 1.57e+06 M⁻¹ s⁻¹. In assay [7], the Kd stood at 0.32 nM, the koff was found to be 9.51e-05 s⁻¹ and the kon was 298000 M⁻¹ s⁻¹.

The term Kd denotes the free concentration of one partner at which half of the binding sites on the other are occupied at equilibrium, for simple one-to-one binding. A higher Kd goes with a looser complex. One may read the koff as the first-order rate constant of dissociation. Usually kon stands for a measure of how fast the partners come together. A lower kon goes with slow association. As a reminder, the EC50 is the concentration giving half of the maximal effect. Broadly, the IC50 is the concentration at which inhibition is half-maximal. Read a low IC50 as greater potency in that assay.
